Measurements as given in PMC8708588, “Easy Expression and Purification of Fluorescent N-Terminal BCL11B CCHC Zinc Finger Domain” (Molecules, 2021).

Columns and labels:
CyPet-BCL11B_(42-94) = target: T1, CyPet-BCL11B_(42-94) (UniProt Q9C0K0 42-94); assay: FRET or BRET; CyPet- and mEYFP-tagged domain mixed 1:1, total protein 200 µg/mL, 20 mM HEPES, 150 mM NaCl, 1 mM DTT, pH 7.4; incubated 48 h at 4 °C; excitation 400 nm, emission spectra 420-700 nm at room temperature; conditions: both partners purified
T1 construct: B-cell lymphoma/leukemia 11B (BCL11B), N-terminal atypical CCHC zinc finger domain, amino acids 42-94; codon-optimized insert; Order on the chain: His6, CyPet, flexible linker (GGGGS)3, TEV-cleaving site, XhoI site, BCL11B 42-94, KpnI site; Fusion of 36 kDa; CyPet already has lysine at position 206; also called fluorescently tagged BCL11B_(42-94); CyPet-tagged N-terminal BCL11B CCHC zinc finger …
T1 sequence (looked up): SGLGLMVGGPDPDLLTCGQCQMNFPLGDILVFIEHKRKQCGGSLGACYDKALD

[1] = target: the molecule itself; assay: SEC; Superdex 200 Increase 3.2/300 on ÄKTAmicro; sizes from a calibration curve with protein standards

B1: mEYFP-BCL11B_(42-94) (domain or fragment, UniProt Q9C0K0 42-94, looked up)
chain: T1 sequence (looked up)
notes: B-cell lymphoma/leukemia 11B (BCL11B), N-terminal atypical CCHC zinc finger domain, amino acids 42-94; codon-optimized insert; Fusion of 36 kDa; also called fluorescently tagged BCL11B_(42-94); source: E. coli NiCo21 (DE3), purified (IMAC, HisTrap excel); not shown: His6, N-terminal, kept; mEYFP (EYFP with A206K), N-terminal, kept
B1: binds (CyPet-BCL11B_(42-94)); binds [1].

B2: untagged BCL11B_(42-94) zinc finger domain (domain or fragment)
chain: GLESGLGLMVGGPDPDLLTCGQCQMNFPLGDILVFIEHKRKQCGGSLGACYDKALD
notes: B-cell lymphoma/leukemia 11B (BCL11B), N-terminal atypical CCHC zinc finger domain, amino acids 42-94; 5.5 kDa; source: E. coli NiCo21 (DE3); TEV digest of purified CyPet- or mEYFP-BCL11B_(42-94), flow-through of IMAC; not shown: His6, N-terminal, cleaved; CyPet or mEYFP, N-terminal, cleaved
With B2 the “stoichiometry N” value [1] was 4.
